The source of these data is article PMC11480844 (2024).

To fix the notation:
T1: peptide on HLA-B*07:02 (human)
T1 peptide: VPSVWRSSL

B1: R23 (TCR, V domains shown)
Valpha: KQEVTQIPAALSVPEGENLVLNCSFTDSAIYNLQWFRQDPGKGLTSLLLIQSSQREQTSGRLNASLDKSSGRSTLYIAASQPGDSATYLCAVRPQGGSEKLVFGKGTKLTVNP
Vbeta: EAQVTQNPRYLITVTGKKLTVTCSQNMNHEYMSWYRQDPGLGLRQIYYSMNVEVTDKGDVPEGYKVSRKEKRNFPLILESPSPNQTSLYFCASTVGGTQYFGPGTRLTVL
B2: R24 (TCR, V domains shown)
Valpha: GQQVMQIPQYQHVQEGEDFTTYCNSSTTLSNIQWYKQRPGGHPVFLIQLVKSGEVKKQKRLTFQFGEAKKNSSLHITATQTTDVGTYFCAVHMNRDDKIIFGKGTRLHILP
Vbeta: EAQVTQNPRYLITVTGKKLTVTCSQNMNHEYMSWYRQDPGLGLRQIYYSMNVEVTDKGDVPEGYKVSRKEKRNFPLILESPSPNQTSLYFCASSLTSFYEQYFGPGTRLTVT
B3: R28 (TCR, V domains shown)
Valpha: AQTVTQSQPEMSVQEAETVTLSCTYDTSESDYYLFWYKQPPSRQMILVIRQEAYKQQNATENRFSVNFQKAAKSFSLKISDSQLGDAAMYFCAYRSAGNQGAQKLVFGQGTRLTINP
Vbeta: ETGVTQSPTHLIKTRGQQVTLRCSSQSGHNTVSWYQQALGQGPQFIFQYYREEENGRGNFPPRFSGLQFPNYSSELNVNALELDDSALYLCASSLGRGTYEQYFGPGTRLTVT
B4: R25 (TCR, V domains shown)
Valpha: GENVEQHPSTLSVQEGDSAVIKCTYSDSASNYFPWYKQELGKGPQLIIDIRSNVGEKKDQRIAVTLNKTAKHFSLHITETQPEDSAVYFCAAQKTSYDKVIFGPGTSLSVIP
Vbeta: EAQVTQNPRYLITVTGKKLTVTCSQNMNHEYMSWYRQDPGLGLRQIYYSMNVEVTDKGDVPEGYKVSRKEKRNFPLILESPSPNQTSLYFCASSTPGSLNEQFFGPGTRLTVL
B5: R21 (TCR, V domains shown)
Valpha: AQKVTQAQTEISVVEKEDVTLDCVYETRDTTYYLFWYKQPPSGELVFLIRRNSFDEQNEISGRYSWNFQKSTSSFNFTITASQVVDSAVYFCALGTYGNNRLAFGKGNQVVVIP
Vbeta: NAGVTQTPKFRILKIGQSMTLQCAQDMNHNYMYWYRQDPGMGLKLIYYSVGAGITDKGEVPNGYNVSRSTTEDFPLRLELAAPSQTSVYFCASTKGGPSSYEQYFGPGTRLTVT
B6: R26 (TCR, V domains shown)
Valpha: GQQVMQIPQYQHVQEGEDFTTYCNSSTTLSNIQWYKQRPGGHPVFLIQLVKSGEVKKQKRLTFQFGEAKKNSSLHITATQTTDVGTYFCAGQDYAGKSTFGDGTTLTVKP
Vbeta: DTGVSQNPRHKITKRGQNVTFRCDPISEHNRLYWYRQTLGQGPEFLTYFQNEAQLEKSRLLSDRFSAERPKGSFSTLEIQRTEQGDSAMYLCASSSGGRFYGYTFGSGTRLTVV

This assay has as its target T1, peptide on HLA-B*07:02. The assay is described as follows: activation reporter or marker.
On to B1, for which the binding result is given as “recognises”.
To B2 belongs “recognises”; to B3, “recognises”.
To B4 belongs “recognises”.
With B5 the entry was “recognises”.
Take B6: the binding result is on record as “recognises”.
